Results as given in US20250188176A1.
Changes are numbered by the printed parent chain.

B1: AHF21173 (Fab, V domains shown, not shown: small tags and cut ends)
VH: EVQLVESGGDLVKPGGSLRLSCVASGFTFRDYAMTWVRQAPGKGLQWVSLINGSGGKTYYADAVKGRFTISRDNAKNTLYLQMNSLRAEDTAVYYCAVDRKTKTIRPQYYGLWVWGQGTLVTVSS
VL: DIVMTQTPLSLSVSPGETASISCRSSQSLTYSIGYNYLDWYLQKPGQSPQGLIYLGHKRASGVPDRFSGSGSGTDFTLRISRVEANDTGVYYCMQGLQSPLSFGQGTKLEIKR
B2: AHF21190 (Fab, V domains shown, not shown: small tags and cut ends)
VH: B1 VH with K101L
VL: B1 VL with T30L
B3: AHF21195 (Fab, V domains shown, not shown: small tags and cut ends)
VH: B1 VH
VL: B1 VL with T30L, H57S
B4: AHF21188 (Fab, V domains shown, not shown: small tags and cut ends)
VH: B1 VH with N52S, K101L, V114H
VL: B1 VL with H57S, S102G
B5: AHF21182 (Fab, V domains shown, not shown: small tags and cut ends)
VH: B1 VH with K101L, V114H
VL: B1 VL with S102L
B6: AHF21178 (Fab, V domains shown, not shown: small tags and cut ends)
VH: B1 VH with K101L
VL: B1 VL with H57S
B7: AHF21177 (Fab, V domains shown, not shown: small tags and cut ends)
VH: B1 VH with K101L
VL: B1 VL with H57S, S102G
B8: AHF21186 (Fab, V domains shown, not shown: small tags and cut ends)
VH: B1 VH with K101L, V114H
VL: B1 VL with T30L, S102T
B9: AHF21201 (Fab, V domains shown, not shown: small tags and cut ends)
VH: B1 VH with K101L, V114H
VL: B1 VL with T30L, S102G
B10: AHF21180 (Fab, V domains shown, not shown: small tags and cut ends)
VH: B1 VH with V114H
VL: B1 VL with H57S, G96P, S102T
B11: AHF21187 (Fab, V domains shown, not shown: small tags and cut ends)
VH: B1 VH
VL: B1 VL with S102G
B12: AHF21184 (Fab, V domains shown, not shown: small tags and cut ends)
VH: B1 VH with N52S, K101L, V114H
VL: B1 VL with T30L, H57S
B13: AHF21194 (Fab, V domains shown, not shown: small tags and cut ends)
VH: B1 VH with K101L
VL: B1 VL with T30L, H57S
B14: AHF21176 (Fab, V domains shown, not shown: small tags and cut ends)
VH: B1 VH with V114H
VL: B1 VL with S102G
B15: AHF21199 (Fab, V domains shown, not shown: small tags and cut ends)
VH: B1 VH with K101L
VL: B1 VL with S102G
B16: AHF21191 (Fab, V domains shown, not shown: small tags and cut ends)
VH: B1 VH with K101L, V114H
VL: B1 VL with H57S, S102G
B17: AHF21200 (Fab, V domains shown, not shown: small tags and cut ends)
VH: B1 VH
VL: B1 VL with H57S, G96P
B18: AHF21174 (Fab, V domains shown, not shown: small tags and cut ends)
VH: B1 VH with K101L
VL: B1 VL

The binders below were run against canine IL-4RA (construct not given) (canine) (assay: SPR, combinatorial Fab-SASA clone).

In order of falling Kd:
1. B12  1.89 nM
2. B3  0.992 nM
3. B17  0.875 nM
4. B4  0.857 nM
5. B11  0.769 nM
6. B2  0.68 nM
7. B13  0.627 nM
8. B1  0.606 nM
9. B7  0.561 nM
10. B18  0.521 nM
11. B8  0.485 nM
12. B6  0.466 nM
13. B5  0.442 nM
14. B9  0.44 nM
15. B15  0.395 nM
16. B16  0.366 nM
17. B14  0.309 nM
18. B10  0.259 nM

In order of falling koff:
1. B12  0.000543 s⁻¹
2. B4  0.000278 s⁻¹
3. B3  0.000192 s⁻¹
4. B2  0.000152 s⁻¹
5. B9  0.000151 s⁻¹
6. B8  0.000148 s⁻¹
7. B13  0.000133 s⁻¹
8. B11  0.000132 s⁻¹
9. B17  0.000127 s⁻¹
10. B5  0.000126 s⁻¹
11. B1  9.69e-05 s⁻¹
12. B18  9.58e-05 s⁻¹
13. B7  9.52e-05 s⁻¹
14. B16  9.48e-05 s⁻¹
15. B14  9.11e-05 s⁻¹
16. B6  8.27e-05 s⁻¹
17. B15  8.18e-05 s⁻¹
18. B10  5.68e-05 s⁻¹

In order of falling kon:
1. B9  344000 M⁻¹ s⁻¹
2. B4  325000 M⁻¹ s⁻¹
3. B8  306000 M⁻¹ s⁻¹
4. B14  295000 M⁻¹ s⁻¹
5. B12  287000 M⁻¹ s⁻¹
6. B5  286000 M⁻¹ s⁻¹
7. B16  259000 M⁻¹ s⁻¹
8. B2  223000 M⁻¹ s⁻¹
9. B10  219000 M⁻¹ s⁻¹
10. B13  212000 M⁻¹ s⁻¹
11. B15  207000 M⁻¹ s⁻¹
12. B3  193000 M⁻¹ s⁻¹
13. B18  184000 M⁻¹ s⁻¹
14. B6  178000 M⁻¹ s⁻¹
15. B11  172000 M⁻¹ s⁻¹
16. B7  170000 M⁻¹ s⁻¹
17. B1  160000 M⁻¹ s⁻¹
18. B17  146000 M⁻¹ s⁻¹
